Data: patent US20150344570A1 (published 2015)

B1: GpH7-A5/GpH7-B3 variant L234_07I/GpL16-k0 (antibody, human IgG1, kappa)
heavy 1: not shown
heavy 2: not shown
light: DIVMTQSPLSLPVTPGEPASISCQASESLVHSNRNTYLHWYLQKPGQSPQLLIYKVSNRFSGVPDRFSGSGSGTDFTLKISRVEAEDVGVYYCSQNTHVPPTFGQGTKVEIERTVAAPSVFIFPPSDEQLKSGTASVVCLLNNFYPREAKVQWKVDNALQSGNSQESVTEQDSKDSTYSLSSTLTLSKADYEKHKVYACEVTHQGLSSPVTKSFNRGEC
notes: also called He Ab L234_07I
B2: GpH7-A5/GpH7-B3 variant L234_10E/GpL16-k0 (antibody, human IgG1, kappa)
heavy 1: not shown
heavy 2: not shown
light: B1 light
notes: also called He Ab L234_10E
B3: GpH7-A5/GpH7-B3 variant Q295_11K/GpL16-k0 (antibody, human IgG1, kappa)
heavy 1: not shown
heavy 2: not shown
light: B1 light
notes: also called He Ab Q295_11K
B4: GpH7-A5/GpH7-B3 variant P329_02A/GpL16-k0 (antibody, human IgG1, kappa)
heavy 1: not shown
heavy 2: not shown
light: B1 light
notes: also called He Ab P329_02A
B5: GpH7-A5/GpH7-B3 variant P271_16H/GpL16-k0 (antibody, human IgG1, kappa)
heavy 1: not shown
heavy 2: not shown
light: B1 light
notes: also called He Ab P271_16H
B6: GpH7-A5/GpH7-B3 variant K334_10E/GpL16-k0 (antibody, human IgG1, kappa)
heavy 1: not shown
heavy 2: not shown
light: B1 light
notes: also called He Ab K334_10E
B7: GpH7-A5/GpH7-B3 variant Q295_09D/GpL16-k0 (antibody, human IgG1, kappa)
heavy 1: not shown
heavy 2: not shown
light: B1 light
notes: also called He Ab Q295_09D
B8: GpH7-A5/GpH7-B3 variant I336_01G/GpL16-k0 (antibody, human IgG1, kappa)
heavy 1: not shown
heavy 2: not shown
light: B1 light
notes: also called He Ab I336_01G
B9: GpH7-A5/GpH7-B3 variant K326_18N/GpL16-k0 (antibody, human IgG1, kappa)
heavy 1: not shown
heavy 2: not shown
light: B1 light
notes: also called He Ab K326_18N
B10: GpH7-A5/GpH7-B3 variant L328_03V/GpL16-k0 (antibody, human IgG1, kappa)
heavy 1: not shown
heavy 2: not shown
light: B1 light
notes: also called He Ab L328_03V
B11: GpH7-A5/GpH7-B3 variant I336_03V/GpL16-k0 (antibody, human IgG1, kappa)
heavy 1: not shown
heavy 2: not shown
light: B1 light
notes: also called He Ab I336_03V
B12: GpH7-A5/GpH7-B3 variant P238_04F/GpL16-k0 (antibody, human IgG1, kappa)
heavy 1: not shown
heavy 2: not shown
light: B1 light
notes: also called He Ab P238_04F
B13: GpH7-A5/GpH7-B3 variant L328_14T/GpL16-k0 (antibody, human IgG1, kappa)
heavy 1: not shown
heavy 2: not shown
light: B1 light
notes: also called He Ab L328_14T
B14: GpH7-A5/GpH7-B3 variant K326_16H/GpL16-k0 (antibody, human IgG1, kappa)
heavy 1: not shown
heavy 2: not shown
light: B1 light
notes: also called He Ab K326_16H
B15: GpH7-A5/GpH7-B3 variant L234_03V/GpL16-k0 (antibody, human IgG1, kappa)
heavy 1: not shown
heavy 2: not shown
light: B1 light
notes: also called He Ab L234_03V
B16: GpH7-A5/GpH7-B3 variant P271_03V/GpL16-k0 (antibody, human IgG1, kappa)
heavy 1: not shown
heavy 2: not shown
light: B1 light
notes: also called He Ab P271_03V
B17: GpH7-A5/GpH7-B3 variant I336_18N/GpL16-k0 (antibody, human IgG1, kappa)
heavy 1: not shown
heavy 2: not shown
light: B1 light
notes: also called He Ab I336_18N
B18: GpH7-A5/GpH7-B3 variant I336_04F/GpL16-k0 (antibody, human IgG1, kappa)
heavy 1: not shown
heavy 2: not shown
light: B1 light
notes: also called He Ab I336_04F
B19: GpH7-A5/GpH7-B3 variant Q295_16H/GpL16-k0 (antibody, human IgG1, kappa)
heavy 1: not shown
heavy 2: not shown
light: B1 light
notes: also called He Ab Q295_16H
B20: GpH7-A5/GpH7-B3 variant K326_14T/GpL16-k0 (antibody, human IgG1, kappa)
heavy 1: not shown
heavy 2: not shown
light: B1 light
notes: also called He Ab K326_14T
B21: GpH7-A5/GpH7-B3 variant L234_04F/GpL16-k0 (antibody, human IgG1, kappa)
heavy 1: not shown
heavy 2: not shown
light: B1 light
notes: also called He Ab L234_04F
B22: GpH7-A5/GpH7-B3 variant L328_19Q/GpL16-k0 (antibody, human IgG1, kappa)
heavy 1: not shown
heavy 2: not shown
light: B1 light
notes: also called He Ab L328_19Q
B23: GpH7-A5/GpH7-B3 variant I336_06M/GpL16-k0 (antibody, human IgG1, kappa)
heavy 1: not shown
heavy 2: not shown
light: B1 light
notes: also called He Ab I336_06M
B24: GpH7-A5/GpH7-B3 variant P238_10E/GpL16-k0 (antibody, human IgG1, kappa)
heavy 1: not shown
heavy 2: not shown
light: B1 light
notes: also called He Ab P238_10E
B25: GpH7-A5/GpH7-B3 variant P271_14T/GpL16-k0 (antibody, human IgG1, kappa)
heavy 1: not shown
heavy 2: not shown
light: B1 light
notes: also called He Ab P271_14T
B26: GpH7-A5/GpH7-B3 variant I332_12R/GpL16-k0 (antibody, human IgG1, kappa)
heavy 1: not shown
heavy 2: not shown
light: B1 light
notes: also called He Ab I332_12R
B27: GpH7-A5/GpH7-B3 variant P238_08L/GpL16-k0 (antibody, human IgG1, kappa)
heavy 1: not shown
heavy 2: not shown
light: B1 light
notes: also called He Ab P238_08L

Target: T1, FcγRIa (human, UniProt P12314 16-292)
T1 construct: extracellular domain; also called FcgRI; 1a
T1 sequence (P12314 16-292): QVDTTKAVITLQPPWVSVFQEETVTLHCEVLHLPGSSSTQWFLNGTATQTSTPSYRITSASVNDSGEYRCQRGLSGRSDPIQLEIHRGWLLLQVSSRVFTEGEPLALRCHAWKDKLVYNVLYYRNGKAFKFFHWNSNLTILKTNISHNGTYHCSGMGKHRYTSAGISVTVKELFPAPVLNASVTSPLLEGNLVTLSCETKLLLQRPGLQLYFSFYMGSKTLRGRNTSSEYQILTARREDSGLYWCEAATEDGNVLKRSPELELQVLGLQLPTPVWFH
Assay: SPR (Biacore); He Ab relative to HeCon Ab = 100
Method in brief: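 Antibodies captured on antigen-peptide chips (CM5 amine-coupled or SA with biotinylated peptide), then each FcγR analyte, diluted in HBS-EP+, was injected at 25° C on Biacore T100. Surfaces regenerated with 10 mM glycine-HCl pH 1.5; binding expressed relative to the reference antibody.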

Row | He/Con_1a | Binder
1 | 103 % of control | B1
2 | 100 % of control | B2
3 | 101 % of control | B3
4 | 102 % of control | B4
5 | 102 % of control | B5
6 | 110 % of control | B6
7 | 100 % of control | B7
8 | 109 % of control | B8
9 | 105 % of control | B9
10 | 101 % of control | B10
11 | 105 % of control | B11
12 | 101 % of control | B12
13 | 100 % of control | B13
14 | 103 % of control | B14
15 | 104 % of control | B15
16 | 102 % of control | B16
17 | 108 % of control | B17
18 | 106 % of control | B18
19 | 102 % of control | B19
20 | 104 % of control | B20
21 | 101 % of control | B21
22 | 101 % of control | B22
23 | 108 % of control | B23
24 | 102 % of control | B24
25 | 102 % of control | B25
26 | 100 % of control | B26
27 | 101 % of control | B27
